EC50 (read off the curve) data for 1 substance are collected here from patent US20250288643A1.

The test has as its target monkey CD47 on LLC-MK2 cells (rhesus monkey) (UniProt H9ERV1). In words: flow cytometry, LLC-MK2 cells. On the technique in general: A flow cytometer gives signals particle by particle.

As a reminder, the EC50 (read off the curve) is the concentration giving half of the maximal effect.

Hu5F9-G4 (antibody) gave an EC50 (read off the curve) of 0.06 nM.
